For assay [1], the target named is T1, Human IL-6 (human, UniProt P05231 30-212).
T1 construct: also called huIL-6; Interleukin-6
Kind of assay: Octet bio-layer interferometry; antibody captured on anti-human IgG Fc sensor, then IL-6, then soluble IL-6R1, then gp130 in the presence of IL-6R1; blocked ligands: IL-6R1 and gp130. The procedure: (§1) To determine the antibody mechanism of action, mechanistic studies were performed using bio-layer interferometry with an Octet QK instrument (ForteBio; Menlo Park, Calif.). Studies were performed in two different configurations. […] Binding is monitored as an increase in signal.
(§2) In the second orientation, the antibody was bound to a biosensor coated with an anti-human IgG1 Fc-specific reagent (ForteBio part number 18-5001). […] All studies were performed in a 200 μL final volume, at 30° C. and 1000 rpm. For these studies, all proteins were diluted using ForteBio's sample diluent buffer (part number 18-5028).

The target of assay [2] is T1, Human IL-6. Description: Octet bio-layer interferometry; biotinylated IL-6 on streptavidin sensor, then antibody or buffer, then soluble IL-6R1, then gp130 in the presence of IL-6R1; blocked ligand: gp130. The procedure: as §1
The IL-6 bound to the sensor was then incubated either with the antibody in question or diluent solution alone.
Background: BLI is a label-free optical method that tracks binding on a fibre tip over time.

Assay [3] deals with T2, Mouse IL-6 (mouse, UniProt P08505 25-211).
T2 sequence (looked up): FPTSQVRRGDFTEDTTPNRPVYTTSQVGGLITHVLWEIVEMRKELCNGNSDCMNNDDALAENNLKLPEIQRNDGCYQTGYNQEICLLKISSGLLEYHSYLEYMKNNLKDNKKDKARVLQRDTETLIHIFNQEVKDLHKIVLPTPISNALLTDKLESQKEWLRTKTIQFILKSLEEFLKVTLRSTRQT
Kind of assay: cell-based or functional assay.

For assay [4], the target named is T3, Cynomolgus monkey IL-6 (cynomolgus monkey, UniProt P79341 28-212, limits assumed).
T3 sequence (looked up): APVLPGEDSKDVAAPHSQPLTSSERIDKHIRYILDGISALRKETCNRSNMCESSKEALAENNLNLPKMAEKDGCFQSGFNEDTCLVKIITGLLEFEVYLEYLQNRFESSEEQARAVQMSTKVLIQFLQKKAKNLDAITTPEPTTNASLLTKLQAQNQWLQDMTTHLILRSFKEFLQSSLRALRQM
Kind of assay: cell-based or functional assay.

Assay [5] concerns the target T1, Human IL-6. Description: cell-based or functional assay.
For assay [6], the target named is T4, Rat IL-6 (rat, UniProt P20607 25-211).
T4 sequence (looked up): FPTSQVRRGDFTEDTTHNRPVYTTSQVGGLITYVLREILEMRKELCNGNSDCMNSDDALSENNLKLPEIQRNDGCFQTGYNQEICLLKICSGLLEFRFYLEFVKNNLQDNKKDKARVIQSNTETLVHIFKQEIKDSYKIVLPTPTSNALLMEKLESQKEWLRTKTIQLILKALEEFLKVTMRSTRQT
Kind of assay: cell-based or functional assay.

The target in assay [7] is T2, Mouse IL-6. Kind of assay: surface plasmon resonance, 25 C, averaged constants.
Assay [8] deals with T3, Cynomolgus monkey IL-6. The description is as above.
Assay [9] concerns the target T1, Human IL-6. The assay is described as above.
In assay [10] the target is T4, Rat IL-6. Described as above.
The target of assay [11] is T1, Human IL-6. Description: Octet bio-layer interferometry; antibody captured on anti-human IgG Fc sensor, then IL-6, then soluble IL-6R1, then gp130 in the presence of IL-6R1; ligand whose binding is slowed: gp130. The procedure: as §1, §2

One may read the Kd as a measure of binding affinity in units of concentration. Usually koff stands for the rate constant with which the complex falls apart. The term kon denotes the rate constant with which the complex forms.

B1: Ab6 (antibody, V domains shown)
VH: QSVEESGGRLVTPGTPLTLTCTVSGIDLSDYAMSWVRQAPGKGLEWIGIIYAGSGSTWYASWAKGRFTISKTSTTVDLKITSPTTEDTATYFCARDGYDDYGDFDRLDLWGPGTLVTVSS
VL: AAVLTQTPSPVSVPVGGTVTIKCQSSQSVYNNFLSWYQQKPGQPPKLLIYQASKLASGVPDRFSGSGSGTQFTLTISGVQCDDAATYYCLGGYDDDADNAFGGGTEVVVKR
notes: Captured on an anti-human IgG1 Fc sensor
On to B1, for which the binding result in the assay with Human IL-6 [1] was “binds”.

B2: Ab4 (antibody, V domains shown)
VH: QEQLKESGGGLVTPGGTLTLTCTASGFSLNAYYMNWVRQAPGKGLEWIGFITLNNNVAYANWAKGRFTFSKTSTTVDLKMTSPTPEDTATYFCARSRGWGAMGRLDLWGHGTLVTVSS
VL: DPVLTQTPSPVSAPVGGTVSISCQASQSVYENNYLSWFQQKPGQPPKLLIYGASTLDSGVPSRFKGSGSGTQFTLTITDVQCDDAATYYCAGVYDDDSDDAFGGGTEVVVKR
notes: as for B1
For B2, the binding result with Human IL-6 [2] is reported as “binds”.

B3: Ab3 (antibody, V domains shown)
VH: QSLEESGGRLVTPGTPLTLTCTASGFSLSVYYMNWVRQAPGKGLEWIGFITMSDNINYASWAKGRFTISKTSTTVDLKMTSPTTEDTATYFCARSRGWGTMGRLDLWGPGTLVTVSS
VL: AAVLTQTPSPVSAAVGGTVSISCQASQSVYDNNYLSWFQQKPGQPPKLLIYGASTLASGVPSRFVGSGSGTQFTLTITDVQCDDAATYYCAGVYDDDSDNAFGGGTEVVVKR
notes: as for B1
As to B3, in the assay with Human IL-6 [2], the binding result is reported as “binds”.

B4: Ab1 (antibody, human IgG1, kappa, N297A, V domains shown)
VH: EVQLVESGGGLVQPGGSLRLSCAASGFSLSNYYVTWVRQAPGKGLEWVGIIYGSDETAYATSAIGRFTISRDNSKNTLYLQMNSLRAEDTAVYYCARDDSSDWDAKFNLWGQGTLVTVSS
VL: AIQMTQSPSSLSASVGDRVTITCQASQSINNELSWYQQKPGKAPKLLIYRASTLASGVPSRFSGSGSGTDFTLTISSLQPDDFATYYCQQGYSLRNIDNAFGGGTKVEIKR
notes: Humanized from a rabbit antibody, IgG1 kappa, aglycosylated, produced in Pichia pastoris; also called clazakizumab; ALD518
For the molecule B4, the “IC50 (pM), T1165 cell proliferation stimulated by the species' IL-6” value in the assay with Mouse IL-6 [3] was 1840 pM; in the assay with Cynomolgus monkey IL-6 [4] it was 12 pM; with Human IL-6 [5], 13 pM; with Rat IL-6 [6] it was 2060 pM. For the same molecule, the equilibrium dissociation constant (Kd) with Mouse IL-6 [7] was found to be 0.4 nM; with Cynomolgus monkey IL-6 [8], 0.031 nM; in the assay with Human IL-6 [9], 0.004 nM; with Rat IL-6 [10], 1.4 nM. Moreover, the koff in the assay with Mouse IL-6 [7] came out at 0.0004 s⁻¹; with Cynomolgus monkey IL-6 [8], 3e-06 s⁻¹; in the assay with Human IL-6 [9], 5e-07 s⁻¹; with Rat IL-6 [10], 0.0022 s⁻¹. For the same molecule, the kon with Mouse IL-6 [7] turned out to be 1.1e+06 M⁻¹ s⁻¹; with Cynomolgus monkey IL-6 [8] it was 96000 M⁻¹ s⁻¹; in the assay with Human IL-6 [9] it was 160000 M⁻¹ s⁻¹; in the assay with Rat IL-6 [10], 1.6e+06 M⁻¹ s⁻¹.

B5: Ab2 (antibody, V domains shown)
VH: QEQLKESGGRLVTPGTPLTLTCTASGFSLNDHAMGWVRQAPGKGLEYIGFINSGGSARYASWAEGRFTISRTSTTVDLKMTSLTTEDTATYFCVRGGAVWSIHSFDPWGPGTLVTVSS
VL: AYDMTQTPASVEVAVGGTVTINCQASETIYSWLSWYQQKPGQPPKLLIYQASDLASGVPSRFSGSGAGTEYTLTISGVQCDDAATYYCQQGYSGSNVDNVFGGGTEVVVKR
notes: The entry may carry a leader
As to B5, the binding result in the assay with Human IL-6 [11] is “binds”.

For the origin of these results see patent US20160130340A1 (ALDERBIO, published 2016).
